From patent US20210380722A1, “COMPOSITIONS AND METHODS FOR THE TREATMENT OF MAJOR DEPRESSIVE DISORDER” (Snake River Bioscience, Inc., priority 2019, published 2021)

Key:
[1] = system: healthy mice injected with exosomes from patients with MDD; experiment: exosomes from blood plasma of MDD patients treated in vitro, injected into healthy mice; format: in vivo; details: human exosomes preincubated with agent, 24 h after injection, FIGS. 5a, 5b
Experimental: Depressive patients (7 women, 10 men) aged >60 years (mean age=71.1 years, SD=4.7) were recruited at the Psychiatric University Hospital, Basel, Switzerland. […] For comparison, 9 healthy individuals without history of depression (mean age=70.9 years, SD=5.3) were included in the study. The study was approved by the “Ethikkommission der Nordwest—und Zentralschweiz” (EKNZ; No. 2015-148) and all participants provided written informed consent. […]
(§1) Behavioral testing was performed between 3:00 p.m. and 6:00 p.m. under diffuse indirect room light. […] The time was recorded during which the mice explored a new environment before they began eating. […] The time that the mouse spent in each of the separate compartments was recorded. […] In the coat state test, the appearance of the coat (groomed vs unkempt coat) was scored on the head, neck, back, and ventrum with either a zero for normal status or a 1 for unkempt status. […] After 24 h the mice were again placed in a water-filled cylinder for 6 min, and the time of mobility or immobility during the last 4 min of the second trial was recorded. […]
Exosomes were isolated from 150 μL blood plasma from patients with major depressive disorder (MDD), and from healthy control subjects. […] Behavior (FIG. 5a) and neurogenesis (FIG. 5b) were determined to measure the occurrence of MDD in mice after injection of human exosomes from depressed patients. […]

[2] = system: untreated wildtype mice injected with exosomes purified from stressed mice; experiment: exosomes from stressed mice incubated ex vivo, injected i.v. into untreated wildtype mice; format: in vivo; details: exosomes from stressed mice incubated 60 min ex vivo with agent, within 24 h, FIGS. 3c, 3d
Experimental: To achieve in vitro neutralization of consumption of ceramide, 125 μL blood plasma or exosomes (purified from 150 μL blood plasma as described below) were incubated with 0.5 μg purified IgM anti-ceramide antibodies, 0.5 μg control IgM or 1 μg recombinant neutral ceramidase.
To isolate exosomes from blood plasma, samples were centrifuged at 16,500×g for 20 min. The supernatant was then passed through a 0.22-μm filter and exosomes were harvested by centrifugation twice at 100,000×g for 70 min. The final pellet was resuspended in phosphate-buffered saline (PBS). Exosomes were pelleted by centrifugation at 100,000×g for 70 min, the supernatant was discarded, and the exosomes were resuspended and injected i.v. into healthy mice. […]
as §1

[3] = system: mice stressed with glucocorticosterone or chronic unpredictable environmental stress (CUS); experiment: i.v. treatment of stressed mice with anti-ceramide antibodies or neutral ceramidase; behavior and neurogenesis; format: in vivo; details: mice stressed 6 days with glucocorticosterone or CUS
[4] = Asah2, R&D; cited from earlier work
[5] = system: healthy wildtype mice injected with blood plasma from stressed mice; experiment: blood plasma from stressed mice treated in vitro, injected i.v. into healthy wildtype mice; format: in vivo; details: plasma from stressed mice incubated in vitro with agent, 125 μL i.v. into non-stressed mice, 24 h later; FIGS. 3a, 3b
Experimental: Corticosterone (Sigma, St. Louis, Mo.) was administered to mice via the drinking water at 120 mg/L for 7 days. In the chronic unpredictable stress model (CUS), the mice were challenged with unpredictable environmental stress for 8 days, i.e., a reversal of the light/dark cycle, 3 h of 45° tilting of the cage twice each week, shaking at 125 rpm, food deprivation for 14 h, predator sounds (15 min) or wet cages (1 h) with two forms of stress per day in a randomized (unpredictable) order. Blood was collected from the heart into heparin-coated needles and tubes immediately after sacrifice by cervical dislocation. Blood plasma was centrifuged at 3500 rpm for 5 min at 4° C. in an Eppendorf centrifuge. […]
as §1

B1: recombinant neutral ceramidase: recombinant neutral ceramidase (Asah2, R&D, 3,000 pmol/min/μg), consumes plasma ceramide (protein, UniProt Q9JHE3 1-756, looked up)
Neutral ceramidase: MAKRTFSTLEAFLIFLLVIMTVITVALLTLLFVTSGTIENHKDSGNHWFSTTLGSTTTQPPPITQTPNFPSFRNFSGYYIGVGRADCTGQVSDINLMGYGKNGQNARGLLTRLFSRAFILADPDGSNRMAFVSVELCMISQRLRLEVLKRLESKYGSLYRRDNVILSAIHTHSGPAGFFQYTLYILASEGFSNRTFQYIVSGIMKSIDIAHTNLKPGKIFINKGNVANVQINRSPSSYLLNPQSERARYSSNTDKEMLVLKLVDLNGEDLGLISWFAIHPVSMNNSNHFVNSDNMGYAAYLFEQEKNKGYLPGQGPFVAGFASSNLGDVSPNILGPHCVNTGESCDNDKSTCPNGGPSMCMASGPGQDMFESTHIIGRIIYQKAKELYASASQEVTGPVLAAHQWVNMTDVSVQLNATHTVKTCKPALGYSFAAGTIDGVSGLNITQGTTEGDPFWDTLRDQLLGKPSEEIVECQKPKPILLHSGELTIPHPWQPDIVDVQIVTVGSLAIAAIPGELTTMSGRRFREAIKKEFALYGMKDMTVVIAGLSNVYTHYITTYEEYQAQRYEAASTIYGPHTLSAYIQLFRDLAKAIATDTVANMSSGPEPPFFKNLIASLIPNIADRAPIGKHFGDVLQPAKPEYRVGEVVEVIFVGANPKNSAENQTHQTFLTVEKYEDSVADWQIMYNDASWETRFYWHKGILGLSNATIYWHIPDTAYPGIYRIRYFGHNRKQELLKPAVILAFEGISSPFEVVTT
- depressed behavior and reduced neurogenesis induced by exosomes from depressed patients [1]: prevented their effects on mice
- development of MDD (behavior parameters and neuronal proliferation) [2]: prevented development of MDD
- neurogenesis in the hippocampus (BrdU-positive cells) ([3]; 24 h after first i.v. injection, FIG. 2b): normalized neurogenesis
- behavioral signs of major depression (light/dark box, latency to feed, time in center, splash test, forced swim test, coat test) ([3]; i.v. injection 24 h and 12 h before analysis, FIG. 2a): abrogated behavioral signs of major depression in stressed mice
- activity of recombinant neutral ceramidase [4]: 3,000 pmol/min/μg
- development of MDD (behavioral changes and neurogenesis in the hippocampus) [5]: prevented the development of MDD
